Results published in publication PMC5300068.

Columns and labels:
Assay in all cases: AUC; sedimentation velocity, 50,000 rpm, absorbance optics, c(s) analysis; physiological ionic strength, buffers with Ca2+ or EDTA; 0.8-2.2 uM for full-length MASPs; dimer to monomers
[1] = molecular target: rat MASP-1 CUB1-EGF-CUB2 (MASP-1 3D) (rat) (UniProt Q8CHN8)
[2] = molecular target: activated full-length rat MASP-1 (rat)
[3] = molecular target: full-length rat MASP-1 zymogen (rat) (UniProt Q8CHN8)
[4] = molecular target: activated full-length rat MASP-2 (rat)
[5] = molecular target: full-length rat MASP-2 zymogen (rat) (UniProt Q9JJS8)

Work on “rat MASP-1 CUB1-EGF-CUB2 (MASP-1 3D) (from UniProt Q8CHN8 61-301) (domain or fragment)” yielded a stoichiometry N [1] of 2.
In the case of “activated full-length rat MASP-1 (enzyme)”, the Kd [2] is reported as less than 10 nM and the stoichiometry N [2] is reported as 2.
In the case of “full-length rat MASP-1 zymogen (from UniProt Q8CHN8 25-704) (enzyme)”, the Kd [3] is reported as less than 10 nM and the stoichiometry N [3] is reported as 2.
With “activated full-length rat MASP-2 (enzyme)” the Kd [4] was less than 10 nM and the stoichiometry N [4] was 2.
In the case of “full-length rat MASP-2 zymogen (from UniProt Q9JJS8 20-685) (enzyme)”, the Kd [5] is reported as less than 10 nM and the stoichiometry N [5] is reported as 2.
